The sequences below were run on Escherichia coli TOP10 (assay: shrunken log2 fold change of peptide-encoding DNA abundance (4.5 h post-induction vs induction); higher = less antimicrobial activity (less host growth inhibition)). Details: time post-induction: 4.5 h; library: site-saturation at positions 5, 18, 19, 20.
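Further: peptides expressed intracellularly from a pBAD plasmid library in pooled LB shake-flask culture, induced with 0.3% L-arabinose, DNA abundance read by NGS, three biological replicates, DESeq2 with apeglm shrinkage.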

Row | Sequence | shrunken log2 fold change
1 | RRIRWRPPRLPRPRPRPPFYPRP | -0.00501
2 | RRIRWRPPRLPRPRPRPPHHPRP | 0.214
3 | RRIRWRPPRLPRPRPRPPHVPRP | 0.444
4 | RRIRWRPPRLPRPRPRPPHWPRP | 0.592
5 | RRIRWRPPRLPRPRPRPPIKPRP | -0.0713
6 | RRIRWRPPRLPRPRPRPPINPRP | -0.0948
7 | RRIRWRPPRLPRPRPRPPLMPRP | 0.213
8 | RRIRWRPPRLPRPRPRPPMGPRP | 0.362
9 | RRIRWRPPRLPRPRPRPPMMPRP | 0.203
10 | RRIRWRPPRLPRPRPRPPMRPRP | 1.18
11 | RRIRWRPPRLPRPRPRPPNAPRP | 0.675
12 | RRIRWRPPRLPRPRPRPPNRPRP | 0.148
13 | RRIRWRPPRLPRPRPRPPPGPRP | 1.08
14 | RRIRWRPPRLPRPRPRPPQNPRP | 0.91
15 | RRIRWRPPRLPRPRPRPPSQPRP | 0.452
16 | RRIRWRPPRLPRPRPRPPTMPRP | 0.264
17 | RRIRWRPPRLPRPRPRPPVRPRP | 0.108
18 | RRIRWRPPRLPRPRPRPPVYPRP | -0.0994
19 | RRIRWRPPRLPRPRPRPPWMPRP | 0.371
20 | RRIRWRPPRLPRPRPRPPYDPRP | -0.0917
21 | RRIRWRPPRLPRPRPRPPYRPRP | 3.11
22 | RRIRWRPPRLPRPRPRPPYVPRP | -0.284

Row | Sequence | shrunken log2 fold change
23 | RRIRWRPPRLPRPRPRPQAHPRP | 0.00175
24 | RRIRWRPPRLPRPRPRPQCFPRP | 0.146
25 | RRIRWRPPRLPRPRPRPQDCPRP | -0.014
26 | RRIRWRPPRLPRPRPRPQEPPRP | 0.316
27 | RRIRWRPPRLPRPRPRPQFMPRP | -0.155
28 | RRIRWRPPRLPRPRPRPQFWPRP | 0.105
29 | RRIRWRPPRLPRPRPRPQGRPRP | 0.64
30 | RRIRWRPPRLPRPRPRPQIVPRP | 0.0235
31 | RRIRWRPPRLPRPRPRPQKGPRP | -0.214
32 | RRIRWRPPRLPRPRPRPQLQPRP | 0.229
33 | RRIRWRPPRLPRPRPRPQMFPRP | 0.197
34 | RRIRWRPPRLPRPRPRPQMGPRP | -0.124
35 | RRIRWRPPRLPRPRPRPQMRPRP | 0.147
36 | RRIRWRPPRLPRPRPRPQMYPRP | -0.168
37 | RRIRWRPPRLPRPRPRPQNDPRP | -0.0722
38 | RRIRWRPPRLPRPRPRPQNEPRP | -0.18
39 | RRIRWRPPRLPRPRPRPQNFPRP | 0.0414
40 | RRIRWRPPRLPRPRPRPQQWPRP | 0.333
41 | RRIRWRPPRLPRPRPRPQRCPRP | 0.103
42 | RRIRWRPPRLPRPRPRPQREPRP | 0.0297
43 | RRIRWRPPRLPRPRPRPQSWPRP | 0.302
44 | RRIRWRPPRLPRPRPRPQTGPRP | -0.000887

Row | Sequence | shrunken log2 fold change
45 | RRIRWRPPRLPRPRPRPQVCPRP | 0.189
46 | RRIRWRPPRLPRPRPRPQYCPRP | -0.198
47 | RRIRWRPPRLPRPRPRPQYGPRP | -0.442
48 | RRIRWRPPRLPRPRPRPQYHPRP | -0.505
49 | RRIRWRPPRLPRPRPRPQYYPRP | -0.0952
50 | RRIRWRPPRLPRPRPRPRACPRP | 0.468
51 | RRIRWRPPRLPRPRPRPRAGPRP | 0.673
52 | RRIRWRPPRLPRPRPRPRCDPRP | 0.429
53 | RRIRWRPPRLPRPRPRPRCHPRP | 0.33
54 | RRIRWRPPRLPRPRPRPRCMPRP | 0.204
55 | RRIRWRPPRLPRPRPRPRESPRP | 0.846
56 | RRIRWRPPRLPRPRPRPRFFPRP | 0.326
57 | RRIRWRPPRLPRPRPRPRFMPRP | -0.17
58 | RRIRWRPPRLPRPRPRPRGVPRP | 0.756
59 | RRIRWRPPRLPRPRPRPRGYPRP | 0.209
60 | RRIRWRPPRLPRPRPRPRMAPRP | 0.614
61 | RRIRWRPPRLPRPRPRPRNSPRP | 0.0821
62 | RRIRWRPPRLPRPRPRPRQDPRP | 0.796
63 | RRIRWRPPRLPRPRPRPRQFPRP | 0.0819
64 | RRIRWRPPRLPRPRPRPRQKPRP | 0.0761
65 | RRIRWRPPRLPRPRPRPRQRPRP | 0.957
66 | RRIRWRPPRLPRPRPRPRREPRP | 0.427

Row | Sequence | shrunken log2 fold change
67 | RRIRWRPPRLPRPRPRPRRRPRP | 1.3
68 | RRIRWRPPRLPRPRPRPRSFPRP | -0.00655
69 | RRIRWRPPRLPRPRPRPRSWPRP | 1.07
70 | RRIRWRPPRLPRPRPRPRTLPRP | 0.565
71 | RRIRWRPPRLPRPRPRPRTRPRP | 0.755
72 | RRIRWRPPRLPRPRPRPRVFPRP | 0.186
73 | RRIRWRPPRLPRPRPRPRWPPRP | 0.598
74 | RRIRWRPPRLPRPRPRPRYDPRP | -0.248
75 | RRIRWRPPRLPRPRPRPRYFPRP | -0.127
76 | RRIRWRPPRLPRPRPRPSEIPRP | -0.178
77 | RRIRWRPPRLPRPRPRPSESPRP | 0.0933
78 | RRIRWRPPRLPRPRPRPSFEPRP | -0.0836
79 | RRIRWRPPRLPRPRPRPSFRPRP | -0.261
80 | RRIRWRPPRLPRPRPRPSGHPRP | -0.195
81 | RRIRWRPPRLPRPRPRPSGVPRP | -0.158
82 | RRIRWRPPRLPRPRPRPSIKPRP | -0.419
83 | RRIRWRPPRLPRPRPRPSKYPRP | -0.632
84 | RRIRWRPPRLPRPRPRPSLIPRP | -0.574
85 | RRIRWRPPRLPRPRPRPSLLPRP | 0.0919
86 | RRIRWRPPRLPRPRPRPSMVPRP | -0.129
87 | RRIRWRPPRLPRPRPRPSNYPRP | -0.707
88 | RRIRWRPPRLPRPRPRPSPGPRP | -0.0366

Row | Sequence | shrunken log2 fold change
89 | RRIRWRPPRLPRPRPRPSPMPRP | -0.108
90 | RRIRWRPPRLPRPRPRPSQFPRP | -0.196
91 | RRIRWRPPRLPRPRPRPSQHPRP | 0.0667
92 | RRIRWRPPRLPRPRPRPSRQPRP | 0.399
93 | RRIRWRPPRLPRPRPRPSSYPRP | -0.123
94 | RRIRWRPPRLPRPRPRPSTFPRP | -0.616
95 | RRIRWRPPRLPRPRPRPSVNPRP | -0.0581
96 | RRIRWRPPRLPRPRPRPSWSPRP | 0.862
97 | RRIRWRPPRLPRPRPRPSWVPRP | 0.0566
98 | RRIRWRPPRLPRPRPRPTAVPRP | 0.415
99 | RRIRWRPPRLPRPRPRPTCMPRP | 0.553
100 | RRIRWRPPRLPRPRPRPTERPRP | -0.124
101 | RRIRWRPPRLPRPRPRPTESPRP | 0.189
102 | RRIRWRPPRLPRPRPRPTIGPRP | 0.217
103 | RRIRWRPPRLPRPRPRPTILPRP | 0.0395
104 | RRIRWRPPRLPRPRPRPTLFPRP | 0.0961
105 | RRIRWRPPRLPRPRPRPTLQPRP | 0.253
106 | RRIRWRPPRLPRPRPRPTMCPRP | -0.00672
107 | RRIRWRPPRLPRPRPRPTNQPRP | 0.018
108 | RRIRWRPPRLPRPRPRPTQLPRP | 0.0699
109 | RRIRWRPPRLPRPRPRPTQVPRP | 0.477

From the supplement of paper PMC9112550, “Optimization of the antimicrobial peptide Bac7 by deep mutational scanning” (BMC Biology, 2022)
